These results are taken from article PMC2323298.

This assay deals with Mouse monoclonal antibody 1F9 (isotype IgG2b with a Kappa light chain). The experiment in a line: phage ELISA. As to conditions: immobilized 1F9; phage dilution 5 (first point of the series); duplicate; parent: est. 0.88; read off a plot. Background: ELISA stands for enzyme-linked immunosorbent assay.
Consider “3D7 AMA1 domain I expressed on M13 phage D204N”, for which the response (absorbance 450 nm) was 0.06.
On to “3D7 AMA1 domain I expressed on M13 phage F201L”, for which the response (absorbance 450 nm) was determined as 0.53.
As to “3D7 AMA1 domain I expressed on M13 phage F201V”, the response (absorbance 450 nm) came out at 0.06.
Consider “3D7 AMA1 domain I expressed on M13 phage H200L”, for which the response (absorbance 450 nm) was found to be 0.17.
Under “3D7 AMA1 domain I expressed on M13 phage N228K” stands 0.38.
